Experiments:
SHP2-C SH2 = assay: SH2 binding enrichment of the phosphorylated peptide, bacterial display (enrichment ratio); higher = better substrate or ligand; peptides without Tyr show the background
c-Src SH2 = assay: as above
Grb2 SH2 = Grb2 SH2 (UniProt P62993); assay: as above
Hck = Hck (UniProt P08631); assay: phosphorylation enrichment, bacterial display (enrichment ratio); higher = better substrate or ligand; peptides without Tyr show the background
FGFR3 = FGFR3 (UniProt P22607); assay: as above
Chain of FGFR3 (P22607 whole entry, looked up): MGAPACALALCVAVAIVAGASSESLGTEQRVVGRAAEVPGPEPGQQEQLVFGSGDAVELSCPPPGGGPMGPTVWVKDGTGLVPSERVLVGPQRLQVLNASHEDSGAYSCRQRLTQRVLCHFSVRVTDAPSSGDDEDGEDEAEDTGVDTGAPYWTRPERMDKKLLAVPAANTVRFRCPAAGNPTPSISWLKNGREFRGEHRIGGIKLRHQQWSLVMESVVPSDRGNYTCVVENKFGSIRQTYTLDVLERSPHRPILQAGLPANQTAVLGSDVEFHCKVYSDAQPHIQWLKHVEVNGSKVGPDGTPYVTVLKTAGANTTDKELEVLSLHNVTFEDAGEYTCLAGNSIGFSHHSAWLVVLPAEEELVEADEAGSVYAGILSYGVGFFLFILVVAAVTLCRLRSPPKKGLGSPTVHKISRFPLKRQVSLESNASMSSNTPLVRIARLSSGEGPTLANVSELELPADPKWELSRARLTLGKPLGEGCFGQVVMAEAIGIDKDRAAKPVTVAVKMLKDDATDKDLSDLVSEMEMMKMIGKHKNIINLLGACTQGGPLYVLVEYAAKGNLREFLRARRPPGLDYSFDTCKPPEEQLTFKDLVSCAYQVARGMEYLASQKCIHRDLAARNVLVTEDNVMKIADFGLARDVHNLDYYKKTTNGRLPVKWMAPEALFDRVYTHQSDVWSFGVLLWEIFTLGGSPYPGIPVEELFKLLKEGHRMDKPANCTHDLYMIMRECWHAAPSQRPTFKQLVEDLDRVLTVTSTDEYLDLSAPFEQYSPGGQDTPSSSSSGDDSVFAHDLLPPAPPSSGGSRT

Jak2 = Jak2 (UniProt O60674); assay: as above
Chain of Jak2 (O60674 whole entry, looked up): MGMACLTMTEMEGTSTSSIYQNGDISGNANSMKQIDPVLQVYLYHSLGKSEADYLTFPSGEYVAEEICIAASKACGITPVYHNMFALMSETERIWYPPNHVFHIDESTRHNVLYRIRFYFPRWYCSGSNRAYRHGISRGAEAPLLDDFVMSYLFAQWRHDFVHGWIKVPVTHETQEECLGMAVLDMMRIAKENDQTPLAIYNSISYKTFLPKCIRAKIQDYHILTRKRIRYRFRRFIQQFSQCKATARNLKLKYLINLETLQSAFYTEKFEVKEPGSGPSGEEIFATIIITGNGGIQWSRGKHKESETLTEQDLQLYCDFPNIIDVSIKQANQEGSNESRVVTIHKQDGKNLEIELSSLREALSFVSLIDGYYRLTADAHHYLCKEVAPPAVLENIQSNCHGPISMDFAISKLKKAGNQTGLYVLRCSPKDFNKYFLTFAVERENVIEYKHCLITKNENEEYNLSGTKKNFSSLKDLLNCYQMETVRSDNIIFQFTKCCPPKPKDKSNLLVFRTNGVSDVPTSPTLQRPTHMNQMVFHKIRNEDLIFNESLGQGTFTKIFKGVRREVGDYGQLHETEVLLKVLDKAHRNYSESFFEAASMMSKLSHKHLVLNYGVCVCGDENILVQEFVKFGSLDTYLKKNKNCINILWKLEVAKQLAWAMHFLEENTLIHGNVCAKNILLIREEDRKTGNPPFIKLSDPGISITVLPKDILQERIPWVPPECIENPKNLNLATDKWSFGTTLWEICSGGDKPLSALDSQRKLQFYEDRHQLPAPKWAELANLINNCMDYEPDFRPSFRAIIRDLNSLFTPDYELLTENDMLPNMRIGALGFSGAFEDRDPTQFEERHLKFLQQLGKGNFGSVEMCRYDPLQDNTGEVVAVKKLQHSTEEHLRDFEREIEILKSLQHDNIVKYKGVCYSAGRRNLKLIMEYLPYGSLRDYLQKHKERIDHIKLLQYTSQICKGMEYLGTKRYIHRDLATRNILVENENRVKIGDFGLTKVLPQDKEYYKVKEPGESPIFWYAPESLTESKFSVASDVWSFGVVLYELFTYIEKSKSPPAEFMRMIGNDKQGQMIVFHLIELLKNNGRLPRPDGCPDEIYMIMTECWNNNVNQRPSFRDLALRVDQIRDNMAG

Fes = Fes (UniProt P07332); assay: as above
MERTK = MERTK (UniProt Q12866); assay: as above
EPHB1 = EPHB1 (UniProt P54762); assay: as above
Chain of EPHB1 (P54762 whole entry, looked up): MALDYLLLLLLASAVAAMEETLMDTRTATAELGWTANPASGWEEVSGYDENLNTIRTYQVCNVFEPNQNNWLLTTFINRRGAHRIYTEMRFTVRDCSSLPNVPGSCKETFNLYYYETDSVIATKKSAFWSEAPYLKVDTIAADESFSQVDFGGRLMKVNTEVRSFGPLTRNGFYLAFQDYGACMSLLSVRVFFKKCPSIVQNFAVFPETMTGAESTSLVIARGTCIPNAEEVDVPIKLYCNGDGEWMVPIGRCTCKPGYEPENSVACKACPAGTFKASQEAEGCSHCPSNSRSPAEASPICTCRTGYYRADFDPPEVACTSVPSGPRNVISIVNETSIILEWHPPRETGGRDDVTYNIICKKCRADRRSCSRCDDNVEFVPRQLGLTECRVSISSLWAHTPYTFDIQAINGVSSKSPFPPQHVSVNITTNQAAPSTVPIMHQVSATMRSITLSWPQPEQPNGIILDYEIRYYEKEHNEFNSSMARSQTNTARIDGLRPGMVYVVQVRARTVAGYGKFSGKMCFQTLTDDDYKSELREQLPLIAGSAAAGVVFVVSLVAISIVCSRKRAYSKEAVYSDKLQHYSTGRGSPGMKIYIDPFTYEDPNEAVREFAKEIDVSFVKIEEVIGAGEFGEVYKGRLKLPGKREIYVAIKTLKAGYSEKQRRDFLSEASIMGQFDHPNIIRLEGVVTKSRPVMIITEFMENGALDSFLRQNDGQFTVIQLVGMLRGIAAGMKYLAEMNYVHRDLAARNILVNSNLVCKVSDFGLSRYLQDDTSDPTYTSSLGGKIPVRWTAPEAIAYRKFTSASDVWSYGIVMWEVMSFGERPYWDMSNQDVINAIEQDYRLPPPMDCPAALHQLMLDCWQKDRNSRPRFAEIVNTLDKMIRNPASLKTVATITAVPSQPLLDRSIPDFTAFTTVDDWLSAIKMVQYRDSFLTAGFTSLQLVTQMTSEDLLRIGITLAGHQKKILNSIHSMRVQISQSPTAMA

c-Src = assay: as above
AncSZ = assay: as above
Fer (mouse) = assay: as above
c-Abl (mouse) = assay: as above
EPHB2 = EPHB2 (UniProt P29323); assay: as above
Chain of EPHB2 (P29323 whole entry, looked up): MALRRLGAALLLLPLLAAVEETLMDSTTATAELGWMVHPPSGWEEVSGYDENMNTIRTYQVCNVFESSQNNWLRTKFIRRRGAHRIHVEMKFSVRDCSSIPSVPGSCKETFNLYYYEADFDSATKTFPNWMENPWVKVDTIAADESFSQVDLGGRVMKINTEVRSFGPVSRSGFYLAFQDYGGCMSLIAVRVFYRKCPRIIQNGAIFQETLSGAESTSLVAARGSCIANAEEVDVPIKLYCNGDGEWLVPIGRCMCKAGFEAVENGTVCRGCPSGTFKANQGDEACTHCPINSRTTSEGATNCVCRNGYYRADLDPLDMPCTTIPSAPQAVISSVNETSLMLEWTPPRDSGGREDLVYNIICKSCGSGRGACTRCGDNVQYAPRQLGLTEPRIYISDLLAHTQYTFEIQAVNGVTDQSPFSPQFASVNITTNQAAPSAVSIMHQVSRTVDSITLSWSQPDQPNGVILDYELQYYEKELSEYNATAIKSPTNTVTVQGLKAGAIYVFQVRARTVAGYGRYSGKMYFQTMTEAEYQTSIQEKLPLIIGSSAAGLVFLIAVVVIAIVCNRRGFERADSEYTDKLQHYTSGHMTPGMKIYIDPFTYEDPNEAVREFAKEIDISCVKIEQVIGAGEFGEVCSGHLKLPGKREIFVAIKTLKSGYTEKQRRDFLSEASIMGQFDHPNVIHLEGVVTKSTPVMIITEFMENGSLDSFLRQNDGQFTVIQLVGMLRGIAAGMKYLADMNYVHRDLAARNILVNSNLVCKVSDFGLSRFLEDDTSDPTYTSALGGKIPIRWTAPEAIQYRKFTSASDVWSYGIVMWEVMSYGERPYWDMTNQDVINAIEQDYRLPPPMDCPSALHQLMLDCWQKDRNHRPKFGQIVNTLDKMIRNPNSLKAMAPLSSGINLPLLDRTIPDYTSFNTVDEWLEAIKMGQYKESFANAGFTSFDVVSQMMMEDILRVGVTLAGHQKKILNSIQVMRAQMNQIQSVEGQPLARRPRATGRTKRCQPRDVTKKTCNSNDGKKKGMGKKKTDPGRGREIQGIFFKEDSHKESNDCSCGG

FGFR1 = FGFR1 (UniProt P11362); assay: as above
Chain of FGFR1 (P11362 whole entry, looked up): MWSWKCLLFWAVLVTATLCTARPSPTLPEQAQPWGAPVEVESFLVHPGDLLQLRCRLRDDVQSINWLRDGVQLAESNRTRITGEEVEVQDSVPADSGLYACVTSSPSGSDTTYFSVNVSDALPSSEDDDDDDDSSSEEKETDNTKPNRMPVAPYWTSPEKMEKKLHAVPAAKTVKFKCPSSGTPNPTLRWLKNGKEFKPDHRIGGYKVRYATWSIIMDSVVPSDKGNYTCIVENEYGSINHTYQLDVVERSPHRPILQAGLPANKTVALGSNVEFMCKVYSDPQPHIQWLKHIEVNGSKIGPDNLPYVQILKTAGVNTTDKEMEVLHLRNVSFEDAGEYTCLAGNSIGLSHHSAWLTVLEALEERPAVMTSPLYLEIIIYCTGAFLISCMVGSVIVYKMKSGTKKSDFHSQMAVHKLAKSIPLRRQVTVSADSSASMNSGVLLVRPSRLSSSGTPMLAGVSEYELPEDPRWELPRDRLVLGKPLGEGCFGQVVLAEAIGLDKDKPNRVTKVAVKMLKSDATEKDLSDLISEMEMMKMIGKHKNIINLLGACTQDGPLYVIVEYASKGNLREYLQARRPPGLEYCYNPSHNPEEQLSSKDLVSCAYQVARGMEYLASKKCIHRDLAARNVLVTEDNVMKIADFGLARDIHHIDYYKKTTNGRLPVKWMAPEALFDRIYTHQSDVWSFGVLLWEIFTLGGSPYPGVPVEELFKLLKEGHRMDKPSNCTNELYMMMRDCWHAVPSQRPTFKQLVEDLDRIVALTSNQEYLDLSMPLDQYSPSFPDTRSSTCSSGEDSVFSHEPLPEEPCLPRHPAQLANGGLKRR

Fyn = Fyn (UniProt P06241); assay: as above
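Wherever SH2 binding enrichment of the phosphorylated peptide, bacterial display is given: peptide library displayed on the E. coli surface as eCPX fusions, selected cells deep-sequenced, score is each peptide's frequency after selection divided by its frequency in the input.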
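Wherever phosphorylation enrichment, bacterial display is given: 11-residue human phosphosite peptides and single-mutation variants displayed on the E. coli surface, counted by deep sequencing, each peptide's frequency after selection divided by its frequency in the unselected input library; frequency after pTyr selection over input frequency; kinase dosed for 20-30% of maximal phosphorylation in three min.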

SH2 binding enrichment (SHP2-C SH2) | SH2 binding enrichment (c-Src SH2) | SH2 binding enrichment (Grb2 SH2) | Sequence | phosphorylation enrichment (Hck) | phosphorylation enrichment (FGFR3) | phosphorylation enrichment (Jak2) | phosphorylation enrichment (Fes) | phosphorylation enrichment (MERTK) | phosphorylation enrichment (EPHB1) | phosphorylation enrichment (c-Src) | phosphorylation enrichment (AncSZ) | phosphorylation enrichment (Fer (mouse)) | phosphorylation enrichment (c-Abl (mouse)) | phosphorylation enrichment (EPHB2) | phosphorylation enrichment (FGFR1) | phosphorylation enrichment (Fyn)
1.05 | 1.4 | 0.939 | RLQEGYDHSYY [ESD_Y258] | 0.611 | 0.928 | 1.05 | 1.01 | 0.597 | 0.717 | 1.06 | 1.21 | 0.573 | 1.11 | 0.53 | 0.715 | 0.645
0.406 | 0.303 | 0.229 | RLRKFHLGKFL [KLB_Y906_Y906H_YF] | 0.63 | 0.651 | 0.698 | 1.13 | 0.969 | 1.17 | 0.792 | 1.06 | 0.415 | 0.948 | 1.16 | 0.417 | 0.574
0.585 | 0.344 | 0.736 | RLSELYLRRNR [CFAP410_Y68] | 0.827 | 0.875 | 0.934 | 1.14 | 1.04 | 0.94 | 0.931 | 1.3 | 0.57 | 1.1 | 0.807 | 0.703 | 0.878
0.843 | 0.83 | 1.04 | RLSVDYGKKSK [TUBA3E_Y161_S162G] | 0.511 | 0.642 | 0.922 | 0.879 | 0.389 | 0.471 | 0.396 | 0.613 | 0.377 | 0.553 | 0.671 | 0.534 | 0.702
0.354 | 0.497 | 0.865 | RNAAEYPLSSG [ABL1_Y139_L140P] | 0.596 | 0.485 | 0.41 | 0.898 | 0.453 | 0.337 | 0.522 | 0.426 | 0.402 | 0.647 | 0.345 | 0.445 | 0.401
2.1 | 1.61 | 1.5 | RNVYYYSYLLK [PTEN_Y178_Y174N] | 5.15 | 8.38 | 8.72 | 2.56 | 11.5 | 8.15 | 7.3 | 3.58 | 1.59 | 9.24 | 5.19 | 9.89 | 3.94
6.22 | 1.25 | 1.37 | RPPFTYATLIR [FOXP3_Y342] | 2.58 | 0.813 | 1.29 | 1.01 | 1.01 | 1.64 | 3.29 | 1.14 | 0.55 | 0.686 | 0.737 | 0.913 | 2.14
0.539 | 0.469 | 1.02 | RQEEEYKRLSE [SFSWAP_Y133] | 0.888 | 1.22 | 2.31 | 2.21 | 0.804 | 0.574 | 1.2 | 2.53 | 0.892 | 1.43 | 1.15 | 0.693 | 1.02
11.3 | 1.74 | 0.928 | RQRTAYFSLDT [CDH1_Y68] | 0.357 | 0.504 | 0.691 | 0.767 | 0.535 | 0.426 | 0.533 | 0.669 | 0.414 | 0.752 | 0.293 | 0.586 | 0.38
0.679 | 0.582 | 0.62 | RRAKGYPIFLF [ITGB2_Y125_D128Y_YF] | 0.548 | 0.63 | 1.12 | 0.741 | 0.524 | 0.351 | 0.857 | 0.632 | 0.581 | 0.854 | 0.739 | 0.561 | 0.624
0.533 | 0.489 | 0.964 | RRGTRYMSSRP [RPL21_Y13_F15S] | 0.621 | 0.633 | 0.699 | 0.473 | 0.57 | 0.481 | 0.947 | 0.439 | 0.578 | 0.527 | 0.499 | 0.551 | 0.772
0.666 | 0.581 | 0.801 | RRIHSYRGFLW [VHL_Y112_H115Y_YF] | 0.377 | 0.378 | 0.577 | 0.575 | 0.577 | 0.343 | 0.552 | 0.622 | 0.458 | 0.426 | 1.73 | 0.389 | 0.577
0.938 | 0.37 | 1.32 | RRKRAYVEIEY [MAK16_Y282_Q277R] | 1.13 | 1.18 | 1.54 | 1.21 | 1.22 | 1.02 | 0.999 | 1.37 | 0.996 | 1.04 | 1.06 | 0.731 | 0.667
0.43 | 0.545 | 0.76 | RRNSPYSQTMK [TET2_Y819] | 0.913 | 0.953 | 1.84 | 1.14 | 0.813 | 1.07 | 1.02 | 1.02 | 0.63 | 1.81 | 0.853 | 2.12 | 0.731
1.12 | 0.611 | 1.23 | RRNTPYSQTMK [TET2_Y819_S817T] | 0.367 | 0.431 | 0.708 | 0.626 | 0.503 | 0.252 | 0.44 | 0.55 | 0.512 | 0.422 | 0.365 | 0.273 | 0.428
0.478 | 0.581 | 0.854 | RSAGKDDVYLI [MECP2_Y120_Y120D] | 0.616 | 0.594 | 0.658 | 0.862 | 0.399 | 0.551 | 1.25 | 0.755 | 0.521 | 0.486 | 0.603 | 0.513 | 1.14
0.894 | 0.572 | 0.913 | RSGIFYKPESL [L2HGDH_Y103_H98R_YF] | 0.716 | 0.702 | 0.647 | 0.866 | 0.499 | 0.547 | 0.751 | 0.994 | 0.458 | 0.706 | 0.567 | 0.572 | 0.512

SH2 binding enrichment (SHP2-C SH2) | SH2 binding enrichment (c-Src SH2) | SH2 binding enrichment (Grb2 SH2) | Sequence | phosphorylation enrichment (Hck) | phosphorylation enrichment (FGFR3) | phosphorylation enrichment (Jak2) | phosphorylation enrichment (Fes) | phosphorylation enrichment (MERTK) | phosphorylation enrichment (EPHB1) | phosphorylation enrichment (c-Src) | phosphorylation enrichment (AncSZ) | phosphorylation enrichment (Fer (mouse)) | phosphorylation enrichment (c-Abl (mouse)) | phosphorylation enrichment (EPHB2) | phosphorylation enrichment (FGFR1) | phosphorylation enrichment (Fyn)
0.926 | 0.813 | 1.12 | RTIPDYTSFNT [EPHB2_Y912] | 0.561 | 0.991 | 0.978 | 0.66 | 0.538 | 0.866 | 0.923 | 0.893 | 0.417 | 1.02 | 0.632 | 1.2 | 0.63
0.843 | 0.436 | 1.01 | RVDRDYVLKST [HTATIP2_Y111_A116T] | 0.578 | 0.529 | 0.436 | 0.823 | 0.487 | 0.492 | 0.388 | 0.961 | 0.511 | 0.369 | 0.659 | 0.526 | 0.65
1.19 | 0.906 | 1.33 | RVFIKYLPEWT [PSEN1_Y240_L235R] | 0.944 | 1.32 | 1.71 | 2.8 | 0.678 | 1.15 | 0.855 | 2.32 | 1.02 | 1.13 | 1.34 | 0.966 | 0.735
1.27 | 0.749 | 0.668 | RVFRDYVLKSA [HTATIP2_Y111_D108Y_YF] | 0.591 | 0.605 | 1.05 | 1.15 | 0.548 | 0.648 | 0.45 | 0.889 | 0.527 | 0.999 | 0.533 | 0.79 | 0.572
0.8 | 5.58 | 0.989 | RYMELYDLNRD [BBS2_Y648] | 1.89 | 1.24 | 1.4 | 1.41 | 1.32 | 1.52 | 4.49 | 1.41 | 1.14 | 0.993 | 1.05 | 1.04 | 1.67
0.709 | 0.683 | 0.983 | SAEEDYIADAK [KCNT1_Y876_M877I] | 0.554 | 0.797 | 1.2 | 1.48 | 0.456 | 0.602 | 0.608 | 1.22 | 0.608 | 0.931 | 0.703 | 0.617 | 0.515
0.565 | 0.512 | 0.983 | SAEKAYHEQFS [TUBA1A_Y282_L286F] | 0.458 | 0.459 | 0.663 | 0.701 | 0.424 | 0.401 | 0.441 | 0.664 | 0.394 | 0.454 | 0.393 | 0.557 | 0.519
0.601 | 0.455 | 0.957 | SARFHYLMAEK [LDHB_Y173_R172H] | 0.455 | 0.751 | 0.455 | 0.661 | 0.499 | 0.463 | 0.403 | 0.666 | 0.473 | 0.372 | 0.403 | 0.445 | 0.564
0.705 | 1.06 | 0.896 | SARSAYQEAID [SFN_Y151_M155I] | 0.523 | 0.685 | 0.875 | 0.994 | 0.471 | 0.461 | 0.516 | 1.02 | 0.395 | 0.83 | 0.405 | 0.573 | 0.434
0.832 | 0.78 | 1.05 | SCRENYSDSEE [LEMD3_Y258] | 0.502 | 0.694 | 1 | 1.14 | 0.539 | 0.607 | 0.475 | 1.07 | 0.434 | 0.792 | 0.619 | 0.547 | 0.52
1.08 | 1.66 | 1.04 | SCRENYSYSEE [LEMD3_Y258_D260Y] | 0.548 | 0.76 | 0.892 | 1.22 | 0.428 | 0.66 | 0.47 | 1.18 | 0.48 | 0.652 | 0.604 | 0.561 | 0.512
1.06 | 1.37 | 0.798 | SDFFAYSPVRE [H6PD_Y449_YF] | 0.68 | 0.675 | 1.01 | 1.02 | 0.473 | 0.614 | 0.573 | 0.928 | 0.821 | 0.615 | 0.591 | 0.422 | 0.514
0.563 | 0.449 | 0.582 | SDTGQYQCLVF [AXL_Y115] | 3.09 | 1.65 | 0.969 | 1.26 | 1.77 | 0.867 | 1.64 | 1.33 | 2.7 | 1.86 | 0.9 | 1.65 | 2.03
0.644 | 0.588 | 0.718 | SEASYYKSLNL [NGEF_Y289] | 0.643 | 0.979 | 1.1 | 0.793 | 0.659 | 0.499 | 0.515 | 0.827 | 0.497 | 0.615 | 0.56 | 1.29 | 0.539
0.393 | 0.472 | 0.94 | SECCKYKIDNP [OSMR_Y689] | 0.381 | 0.488 | 0.658 | 0.786 | 0.419 | 0.464 | 0.46 | 0.642 | 0.407 | 0.539 | 0.416 | 0.756 | 0.411
0.614 | 0.558 | 0.827 | SEDSEYYKAFE [CASQ2_Y178] | 0.61 | 0.98 | 1.17 | 1.16 | 0.494 | 0.656 | 0.698 | 1.71 | 0.535 | 0.695 | 0.611 | 0.58 | 0.621

— the supplement of paper PMC10065799, “High-throughput profiling of sequence recognition by tyrosine kinases and SH2 domains using bacterial peptide display” (eLife, 2023)
